Like-named read-outs stand apart in the source and are kept apart here. *1 amine or outer side, *2 acyl side, *3 side chain or, on linkers, in order; H or OH if unused. Bridges are numbered along the chain shown (N, C = ends). Primed or numbered codes have the meaning given here. [ ]: non-standard residue; d: D form. Phe(4-(2-acetylaminoethoxy)) = 4-(2-acetamidoethoxy)-phenylalanine, CC(=O)NCCOc1ccc(C[C@H](N[*:1])C(=O)[*:2])cc1; Phe(4-OMe)(3) = O-methyl-L-tyrosine (4-methoxy-L-phenylalanine), COc1ccc(C[C@H](N[*:1])C(=O)[*:2])cc1; Phe(4-OMe) = 4-methoxy-L-phenylalanine (O-methyl-L-tyrosine), COc1ccc(C[C@H](N[*:1])C(=O)[*:2])cc1; Phe(4-OMe)(5) = O-methyl-L-tyrosine (4-methoxy-Phe), COc1ccc(C[C@H](N[*:1])C(=O)[*:2])cc1; Phe(4-guanidino) = N=C(N)Nc1ccc(C[C@H](N)C(=O)O)cc1; Phe(4-N3) = [N-]=[N+]=Nc1ccc(C[C@H](N)C(=O)O)cc1; Phe(4-CONH2) = NC(=O)c1ccc(C[C@H](N)C(=O)O)cc1; Tyr(Ph) = N[C@@H](Cc1ccc(Oc2ccccc2)cc1)C(=O)O; Abu(4-yl) = O=C([C@H](CC[*:3])N[*:1])[*:2]; Phe(4-Br) = N[C@@H](Cc1ccc(Br)cc1)C(=O)O; Phe(4-NH2) = Nc1ccc(C[C@H](N)C(=O)O)cc1; 1Nal = N[C@@H](Cc1cccc2ccccc12)C(=O)O; 2Nal = N[C@@H](Cc1ccc2ccccc2c1)C(=O)O; AEF = NCCOc1ccc(C[C@H](N)C(=O)O)cc1; Cha = N[C@@H](CC1CCCCC1)C(=O)O; αMeL = CC(C)C[C@](C)(N)C(=O)O; hLeu = CC(C)CC[C@H](N)C(=O)O; αMeK = C[C@](N)(CCCCN)C(=O)O; Abu = CC[C@H](N)C(=O)O; βAla = NCCC(=O)O
How the values were obtained:
Rat IL-23R_huFC [1] = target: Rat IL-23R_huFC (rat); assay: rat ELISA vs IL-23
[2] = target: T1, IL-23R on human cells (IL-23R-expressing DB cells; human NK cells) (human, UniProt Q5VWK5 24-629); assay: cell-based or functional assay
T1 sequence (looked up): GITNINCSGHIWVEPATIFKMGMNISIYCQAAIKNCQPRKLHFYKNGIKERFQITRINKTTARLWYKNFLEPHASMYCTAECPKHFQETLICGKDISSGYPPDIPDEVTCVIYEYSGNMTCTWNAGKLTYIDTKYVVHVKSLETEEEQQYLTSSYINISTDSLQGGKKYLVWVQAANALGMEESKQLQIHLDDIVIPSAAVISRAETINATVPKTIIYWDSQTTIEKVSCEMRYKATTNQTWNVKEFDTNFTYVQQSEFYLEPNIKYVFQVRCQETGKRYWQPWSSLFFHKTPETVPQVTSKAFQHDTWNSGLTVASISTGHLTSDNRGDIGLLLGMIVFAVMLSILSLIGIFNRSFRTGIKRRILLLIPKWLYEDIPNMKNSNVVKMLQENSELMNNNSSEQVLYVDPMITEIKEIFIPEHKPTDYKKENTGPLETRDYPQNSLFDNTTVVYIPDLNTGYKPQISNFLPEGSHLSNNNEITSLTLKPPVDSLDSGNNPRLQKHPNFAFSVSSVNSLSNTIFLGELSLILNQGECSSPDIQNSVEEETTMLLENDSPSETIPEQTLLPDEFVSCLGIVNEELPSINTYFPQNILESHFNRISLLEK

IL23R_huFC [3] = target: T2, IL23R_huFC (human, UniProt Q5VWK5 24-353); assay: human ELISA vs IL-23
T2 sequence (looked up): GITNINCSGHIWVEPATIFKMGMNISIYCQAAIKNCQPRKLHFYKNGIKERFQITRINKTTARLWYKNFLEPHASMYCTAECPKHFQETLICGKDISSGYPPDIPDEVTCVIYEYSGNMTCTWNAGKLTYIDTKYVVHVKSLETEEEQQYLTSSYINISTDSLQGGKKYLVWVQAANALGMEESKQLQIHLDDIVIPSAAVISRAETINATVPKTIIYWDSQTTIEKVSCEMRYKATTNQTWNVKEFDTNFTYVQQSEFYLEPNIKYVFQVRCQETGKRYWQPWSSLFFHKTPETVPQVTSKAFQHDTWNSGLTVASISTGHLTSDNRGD

Rat IL-23R_huFC [4] = target: Rat IL-23R_huFC (rat); assay: rat ELISA vs IL-23; remark: listed apart in the source
IL23R_huFC [5] = target: T2, IL23R_huFC; assay: human ELISA vs IL-23; remark: listed apart in the source

Row | Binder | IC50 (Rat IL-23R_huFC [1]) [nM] | pStat3 HTRF IC50 [2] [nM] | IC50 (IL23R_huFC [3]) [nM] | IC50 (Rat IL-23R_huFC [4]) [nM] | IC50 (IL23R_huFC [5]) [nM]
1 | XQTWQCFXXENG (as bracketed in name; thioether cyclo) [Ac-Cyclo-[[Abu]-QTWQC]-[Phe(4-OMe)]-[2-Nal]-[α-MeOrn]-ENG-NH2] | 25 to 100 |  |  |  | 
2 | Ac-[Abu]QTWQC[Phe(4-OMe)][2Nal][Cha]K(Ac)NG-NH2 (thioether 1-6) [Ac-Cyclo-[[Abu]-QTWQC]-[Phe(4-OMe)]-[2-Nal]-[Cha]-[Lys(Ac)]-NG-NH2] | 25 to 100 | < 10 | 25 to 100 |  | 
3 | Ac-E[Abu(4-yl)]QTWQC[AEF][2Nal][αMeK]ENN-NH2 (thioether 2-7; SMILES CC(=O)N[C@@H](CCC(=O)O)C(=O)N[C@H]1CCSC[C@@H](C(=O)N[C@@H](Cc2ccc(OCCN)cc2)C(=O)N[C@@H](Cc2ccc3ccccc3c2)C(=O)N[C@@](C)(CCCCN)C(=O)N[C@@H](CCC(=O)O)C(=O)N[C@@H](CC(N)=O)C(=O)N[C@@H](CC(N)=O)C(N)=O)NC(=O)[C@H](CCC(N)=O)NC(=O)[C@H](Cc2c[nH]c3ccccc23)NC(=O)[C@H]([C@@H](C)O)NC(=O)[C@H](CCC(N)=O)NC1=O) [Ac-E-Cyclo-[[Abu]-QTWQC]-[Phe[4-(2-aminoethoxy)]]-[2-Nal]-[α-MeLys]-ENN-NH2] |  | < 10 |  | < 10 | < 10
4 | Ac-L[Abu(4-yl)]QTWQC[AEF][2Nal][αMeK]ENN-NH2 (thioether 2-7; SMILES CC(=O)N[C@@H](CC(C)C)C(=O)N[C@H]1CCSC[C@@H](C(=O)N[C@@H](Cc2ccc(OCCN)cc2)C(=O)N[C@@H](Cc2ccc3ccccc3c2)C(=O)N[C@@](C)(CCCCN)C(=O)N[C@@H](CCC(=O)O)C(=O)N[C@@H](CC(N)=O)C(=O)N[C@@H](CC(N)=O)C(N)=O)NC(=O)[C@H](CCC(N)=O)NC(=O)[C@H](Cc2c[nH]c3ccccc23)NC(=O)[C@H]([C@@H](C)O)NC(=O)[C@H](CCC(N)=O)NC1=O) [Ac-Leu-Cyclo-[[Abu]-QTWQC]-[Phe[4-(2-aminoethoxy)]]-[2-Nal]-[α-MeLys]-ENN-NH2] |  | < 10 |  | < 10 | < 10
5 | Ac-[dQ][Abu]QTWQC[AEF][2Nal][αMeK]ENN-NH2 (thioether 2-7) [Ac-[(D)Gln]-Cyclo-[[Abu]-QTWQC]-[Phe[4-(2-aminoethoxy)]]-[2-Nal]-[α-MeLys]-ENN-NH2] |  | < 10 |  | < 10 | < 10
6 | Ac-[dR][Abu]QTWQC[AEF][2Nal][αMeK]ENN-NH2 (thioether 2-7) [Ac-[(D)Arg]-Cyclo-[[Abu]-QTWQC]-[Phe[4-(2-aminoethoxy)]]-[2-Nal]-[α-MeLys]-ENN-NH2] |  | < 10 |  | < 10 | < 10
7 | Ac-[Abu]QTWQC[Phe(4-CONH2)][2Nal][αMeK]K(Ac)NG-NH2 (thioether 1-6) [Ac-Cyclo-[[Abu]-QTWQC]-[Phe(4-CONH2)]-[2-Nal][α-MeLys]-[Lys(Ac)]NG-NH2] | 25 to 100 |  |  |  | 
8 | Ac-[Abu]QTWQC[Phe(4-Br)]W[αMeK]ENG-NH2 (thioether 1-6) [Ac-Cyclo-[[Abu]-QTWQC]-[Phe(4-Br)] W-[α-MeLys]-ENG-NH2] | 25 to 100 |  |  |  | 
9 | Ac-[Abu]QTWQC[Tyr(Ph)]W[αMeK]ENG-NH2 (thioether 1-6) [Ac-Cyclo-[[Abu]-QTWQC]-[Phe(4-phenoxy)]-W-[α-MeLys]-ENG-NH2] | 25 to 100 |  |  |  | 
10 | Ac-[Abu]QTWQC[2Nal][2Nal][αMeK]K(Ac)NG-NH2 (thioether 1-6) [Ac-Cyclo-[[Abu]-QTWQC]-[2-Nal]-[2-Nal]-[α-MeLys]-[Lys(Ac)]-NG-NH2] | 25 to 100 |  | 25 to 100 |  | 
11 | XQTWQCFWXENG (as bracketed in name; thioether cyclo) [Ac-Cyclo-[[Abu]-QTWQC]-[Phe(4-OMe)]-W-[α-MeOrn]-ENG-NH2] | 25 to 100 | < 10 | 25 to 100 |  | 
12 | XQTWQCYWXKNG (as bracketed in name; thioether cyclo) [Ac-Cyclo-[[Abu]-QTWQC-YW-[α-MeOrn]-[Lys(Ac)]-NG-NH2] | 25 to 100 |  |  |  | 
13 | Ac-[Abu]QTWQC[Phe(4-OMe)][1Nal][αMeK]K(Ac)NG-NH2 (thioether 1-6) [Ac-Cyclo-[[Abu]-QTWQC]-[Phe(4-OMe)]-[1-Nal][α-MeLys]-[Lys(Ac)]-NG-NH2] | 25 to 100 |  |  |  | 
14 | Ac-[Abu]QTWQC[Phe(4-OMe)(3)][2Nal][αMeK]K(Ac)QG-NH2 (thioether 1-6) [Ac-Cyclo-[[Abu]-QTWQC]-[Phe(4-OMe)]-[2-Nal][α-MeLys]-[Lys(Ac)]-QG-NH2] | 25 to 100 | < 10 | 25 to 100 |  | 
15 | Ac-[Abu]QTWQC[AEF][2Nal][αMeL]K(Ac)NN-NH2 (thioether 1-6) [Ac-Cyclo-[[Abu]-QTWQC]-[Phe[4-(2-aminoethoxy)]]-[2-Nal]-[α-MeLeu]-[Lys(Ac)]-NN-NH2] |  | < 10 |  | < 10 | < 10
16 | Ac-[Abu]QTWQC[AEF][2Nal][hLeu]K(Ac)N[βAla]-NH2 (thioether 1-6) [Ac-Cyclo-[[Abu]-QTWQC]-[Phe[4-(2-aminoethoxy)]]-[2-Nal]-[hLeu]-[Lys(Ac)]-N-[βAla]-NH2] |  | < 10 |  | < 10 | < 10
17 | Ac-[Abu]QTWQC[Phe(4-(2-acetylaminoethoxy))][2Nal][αMeK](Ac)ENQ-NH2 (thioether 1-6) [Ac-Cyclo-[[Abu]-QTWQC]-[Phe[4-(2-(acetyl-aminoethoxy)]]-[2-Nal]-[α-MeLys(Ac)]-ENQ-NH2] |  | < 10 |  | < 10 | < 10
18 | Ac-[Abu]QTWQC[Phe(4-OMe)][2Nal][αMeK]VNG-NH2 (thioether 1-6) [Ac-Cyclo-[[Abu]-QTWQC]-[Phe(4-OMe)]-[2-Nal]-[α-MeLys]-VNG-NH2] | 25 to 100 | < 10 | 25 to 100 |  | 
19 | Ac-[Abu]QTWQC[Phe(4-OMe)][1Nal][αMeK]ENG-NH2 (thioether 1-6) [Ac-Cyclo-[[Abu]-QTWQC]-[Phe(4-OMe)]-[1-Nal]-[α-MeLys]-ENG-NH2] | 25 to 100 |  | 25 to 100 |  | 
20 | Ac-[Abu]QTWQC[AEF][2Nal][αMeL]ENN-NH2 (thioether 1-6) [Ac-Cyclo-[[Abu]-QTWQC]-[Phe[4-(2-aminoethoxy)]]-[2-Nal]-[α-MeLeu]-ENN-NH2] |  | < 10 |  | < 10 | < 10
21 | Ac-[Abu]QTWQC[Phe(4-(2-acetylaminoethoxy))][2Nal][αMeK](Ac)ENN-NH2 (thioether 1-6) [Ac-Cyclo-[[Abu]-QTWQC]-[Phe[4-(2-(acetyl-aminoethoxy)]]-[2-Nal]-[α-MeLys(Ac)]]-ENN-NH2] |  | < 10 |  | < 10 | < 10
22 | Ac-[Abu]QTWQC[Phe(4-OMe)(3)][2Nal][αMeK]K(Ac)NGE-NH2 (thioether 1-6) [Ac-Cyclo-[[Abu]-QTWQC]-[Phe(4-OMe)]-[2-Nal][α-MeLys]-[Lys(Ac)]-NGE-NH2] | 25 to 100 | < 10 | 25 to 100 |  | 
23 | Ac-[Abu]STWQC[Phe(4-OMe)(5)][2Nal][αMeK]K(Ac)NGE-NH2 (thioether 1-6) [Ac-Cyclo-[[Abu]-STWQC]-[Phe(4-OMe)]-[2-Nal][α-MeLys]-[Lys(Ac)]-NGE-NH2] | 25 to 100 |  | 25 to 100 |  | 
24 | Ac-[Abu]QTWQC[Phe(4-N3)][2Nal][αMeK]K(Ac)NG-NH2 (thioether 1-6) [Ac-Cyclo-[[Abu]-QTWQC]-[Phe-4-N3]-[2-Nal]-[α-MeLys]-[Lys(Ac)]-NG-NH2] | 25 to 100 |  |  |  | 
25 | Ac-[dE][Abu]QTWQC[AEF][2Nal][αMeK]ENN-NH2 (thioether 2-7) [Ac-(D)Glu-[Cyclo-[[Abu]-QTWQC]-[Phe[4-(2-aminoethoxy)]]-[2-Nal]-[α-MeLys]-ENN-NH2] |  | < 10 |  | < 10 | < 10
26 | Ac-[Abu]QTWQC[2Nal][2Nal][αMeK]ENG-NH2 (thioether 1-6) [Ac-Cyclo-[[Abu]-QTWQC]-[2-Nal]-[2-Nal]-[α-MeLys]-ENG-NH2] | 25 to 100 |  | 25 to 100 |  | 
27 | Ac-[Abu]QTWQC[Phe(4-NH2)]W[αMeK]ENG-NH2 (thioether 1-6) [Ac-Cyclo-[[Abu]-QTWQC]-[Phe(4-NH2)]-W-[α-MeLys]-ENG-NH2] | 25 to 100 |  |  |  | 
28 | Ac-[Abu]QTWQC[Phe(4-OMe)]W[αMeK]ENG-NH2 (thioether 1-6) [Ac-Cyclo-[[Abu]-QTWQC]-[Phe(4-OMe)]-W-[α-MeLys]-ENG-NH2] | 25 to 100 |  |  |  | 
29 | Ac-[Abu]QTWQC[Phe(4-guanidino)]W[αMeK]ENG-NH2 (thioether 1-6) [Ac-Cyclo-[[Abu]-QTWQC]-[Phe(4-guanidino)]-W-[α-MeLys]-ENG-NH2] | 25 to 100 |  |  |  | 

From patent publication US20190300590A1 (PROTAGONIST THERAPEUTICS, published 2019)
